Reference: the DeepSol protein solubility set

Assay: soluble on expression in E. coli; label from the status in PepcDB or PDB records

Row | Sequence | soluble on expression in E. coli
1 | MNVSIKNTDAVNAIATVAIEKADYANEVEKALRTYRQRANVPGFRKGMVPMGMIKKMYGKGVKAEEINRVVGRELYRYIAENKLNVLGEPMPNEELQKEYDFDTTDDFEFVFDLALSPVVDVVVDKSIRVPYYTIQPTEEMIDRQIESMRSSYGHSVEADEVTANDVVKGRLCELEDGQPKEGGICVEEAMLLPAYMKDEEEKNKFVGAAKNSVVVFNPSKAYNNNEYELSSLLKVDKSAIGEHTGDFSFEISSISRHEKAELNEEFFKQAFGEETDIKNEADLRVKVTEGVREQFTAESDYKFLIDLRRELEAQVGELQFPDALLKRWLKLSHTEWSDEELEKQYPAMIKDLTFHVIKEDLVKKNDIVVTPQEVRNFAIIVAKNQFAQYGMSAVPQDALERYANTMMEKEDARRNFFDRVTENKLAAALKEKLDIDAKTVSPDEFNKLMTEQPASAE | not soluble
2 | MDYQERLKNLPPEVMTAFSESFIFLISNDKVQHFPARDLTQAEMIQRVKEKLGEAVTWSLWQGFVIAVNSEETCVAVLPKYYQLDGFENE | not soluble
3 | MTATQITGVVLAAGRSNRLGTPKQLLPYRDTTVLGATLDVARQAGFDQLILTLGGAASAVRAAMALDGTDVVVVEDVERGCAASLRVALARVHPRATGIVLMLGDQPQVAPATLRRIIDVGPATEIMVCRYADGVGHPFWFSRTVFGELARLHGDKGVWKLVHSGRHPVRELAVDGCVPLDVDTWDDYRRLLESVPS | not soluble
4 | MFISCIILINYSYIFGKNIRYLYEFKVIWKSNNSLILFFIEFDRNFMTIKFKLFKCRRLNILIELINIENYFRNGNILCFIFNIPSIPRNLLINVFLTSSNKVNISIQGLKLEHHHHHH | not soluble
5 | MAHHHHHHMLKRYERTKLNVLRGERFLRLCEVSYRAVCRDPSLGGAEGIANIEDRTWEMVQRTFQASPERCSLKNAPFSVDGVEICALLRRPDNVFLILVAQYRPPVDAVVLEFPAGLVDNGEDVKSAALRELKEETGYVATEENIISVTDALCCEPGMTDSCCKFVRLFVDGEKEVNRFPQQELDEGEDIEVILLPISLKKGVAGGDTPLQSLNKLLHEKNKGQQRNIVDAKLYMFLDGLSQMSTMFC | soluble
6 | MSLDVPAMPERVETQGVEFVEFSTAPEEKANLEVLLATLGFEKSAQHRNRAVDLYTQGDIRIVINTSDDGDSFAGASYSIHGTNAYAFGLKVDDAQAALARAEALGAPTFAEPRNTGEVAVPAIQGVGNGVIYFLDASPALASIWDKEFVPTQGQKAMSDAGLTRVDHLAQTTHYDEMLTWLLFYTSLFSSRRTPMIDVVDPGGLVRSQAIESVPAANFRLTMNGADNRKTFAGKFLAEGFGSSIQHIAFATDDIFATAKAMQARGFHALPISRNYYDDLEARFGLEPEFSDALREASILYDRDDSGEYFQIYSRTFGEGFFFEVIERRGAYGGYGAMNAPFRIAAQRRLAEGHHHHHH | soluble
7 | MRLLVQNVHKRFGKLEALKGVSLELGAGEILGLLGPNGAGKTTLIKVVLGLLLPDGGEVVLEEGGARRRPQGHEFGVLLEGSRNLYVNLSLLVNALYFGGIRGLPPKEVRPRFEAWLERFGLKDRLHAPLASLSRGMQQKAALALALALKPRFLLLDEPTLGLDPVSRREFEGILLELKKEGWGILLTSHDLEVVERVSDRVAFLHRGEVRRQGPTRVLLREWAGEGYRVRLAEPKAEALLQALGPGWSAEGPEVLFFLGPWEALREALGAFPVEVLEVSRGTPSLEALFLHLFGEARPSPSA | soluble
8 | RTEVVAVALDTSLEELKGRFVESGISKIIVYDGNIDNVVGYIHSSEMFRSPKDWRNHVKEVPIVPETMAAHKLMKLFMQQKKTIAVVVDEFGGTSGIVSLEDLVEEIFGDIEDEHDNTSYICKQIGE | not soluble
9 | MKFGWIKTTGNDLEERMESVKDALESSIPGIIAEKEEISSVRELGNIKIVSDNLDADVVLINKGEDLEILKSAKLSGKETGVYVVINTKEDEVYATDVSKLDFVDYVVLEGSDWTIIPLENIIADLFSEEIKIVSVVTNVKDAEAAYEILEKGVDGVVLIPKDINEVKDFSKLIERMNSESVKLDYATVTKIEPVGSGDRVCIDTCSMMEMGEGMLIGSYSRGMFLVHSETVENPYVATRPFRVNAGPVHAYILCPENKTKYLSDLKAGDKVLVVNKNGETREAIIGRVKIEKRPLFLVEAEYNGENLRTILQNAETIRLVGEDGKPVSVVDLKVGTKVLIKPDENARHFGMAIKETIIEKLEHHHHHH | soluble
10 | MYSMLKRVITEKDLLRQIRLLEQLLNVPQLTAKRLAAQIQTTERTVFSDLQYIRSQLPADWSIETDSSGIRLRNQGNAQTNELWSLFLPQSISIQLLKELLFTKELVTTSFLSTSGVSYETLKRHIKKMNQALRDFHLTIQLTTMTIQLIGAESNIRIFYHRLLVPFTHNNYFFDDYSIHEEHYFQFLKQVYSSELTVETEEIFGACWFFINTIRNKANCRVSQFSFDSKDVLFQLYQPSLAKLYASEGIYLQGEESFFAFFCFLESWNYDNVYGETLASALHTHYSQLRKSLQQFVTNLSTEEARPDLIQTNLLDNLLLLFIKYTESPTLSEQFQLEYQELMTEQAAEDLALSKSNQELLEILSRYTTIEEPTYFLSLASLLEKQAIYSIQAQTMTAYFLFQGEPAWKAFLQQELAAYLGTRVKLQAIEYVELSQLTLNEADIIISNFPLDHLDLPVFYLSLIPTKNELRRLAELTLHSYF | soluble
11 | MSLDTDREQILAEFLSIDRTKVRRIEHHRCHAAYSYYASKYRNKPILALTVDGWGDGKDATIGIFDEKGKYSRVYESDQCAIGRIYRYMTLMLGMKPNEHEFKVMGLAPYGKETHAKKALDILRNTLYVDGEEFKWKEKPKDSYFWFKERFEGVRFDNIAFALQKWTEELLVEWVKNAINKYKIHDIVISGGVAMNIKAMGKIADLPEVKSLFIGGSASDESMAISSGICLAEDLTKESSREWNSNTIESLTRLYLGPSASLKEEERVVDGLDKKKFEIIENPENKRIAEVLFEGKILARAAGRMEFGQRALGNRSILADPIHLKIKEKINSAIKSRDFWMPFAPVVMDTFVERYLLNPKSLESPHMTLSFDTTEEGYDAMSAACHPADRTARAQILKEHDNPELYSLLKAFQHLTGRGALLNTSFNLHGFPIVNSPSEAVDVLVNSGLDGLILNYFLILKKEGHHHHHH | not soluble
12 | GHHHHHHHHHHSSGHISGDAMEDKQERANYEKLQQKFQMLMSKHQAHVRPQFESLEKINKDIVGWIKLSGTSLNYPVLQGKTNHDYLNLDFEREHRRKGSIFMDFRNELKNLNHNTILYGHHVGDNTMFDVLEDYLKQSFYEKHKIIEFDNKYGKYQLQVFSAYKTTTKDNYIRTDFENDQDYQQFLDETKRKSVINSDVNVTVKDRIMTLSTCEDAYSETTKRIVVVAKIIKVS | soluble
13 | MGSDKIHHHHHHMSSSAPIDYAALADRIHTWGRELGFQQVGITDTDLAAHERYLERWLAAGYHGEMHFMAKHGSKRTRPEELVPGTLRVVSVRMDYLPPEVETTKVLGQPERAYISRYALGRDYHKLIRKRLATLAKRIEDEVGAYGYRAFVDSAPVMERALAQKAGLGWFGKNAMLLNPQAGSLFFLGELYTDLPLPVDAPFDSEHCGKCSRCQTACPTGAIVDDKVIDSRRCISYLTIELAGSIPEEYREAMGNRVYGCDDCQLVCPFTRFTRVSREDDFAPRHDLDRASLVRLFAWSEEEFLARTEGSAIRRIGYERWLRNLAIGLGNAPWSDQVESALRARLAYPSDLVREHVRWGLEQQRRKRERRIASDVDAPAAPERSA | not soluble
14 | PCRECGRPMMIRTASTGVFLGCSGYSLPPKERCKATVNLIPGDEIAADDEGESESRVLRGKHRCPICSTAMDAYLLDEKHKLHICGNNPDCPGYEIEEGQYRIKGYEGPSLECDKCGSEMQLKTGRFGKFFGCTNPTCKNTRKLLK | not soluble
15 | MSLSGKNNIELDSWKKAINVISKNMDNGRIGIVQGPPGTGKTTIYANAFSRYFDKLGDGNIIVYIAPTNELVYDMFKKVGSEYAKRGAIDRISHEVRVYGSIFDQDPSIRSIREPPSMETKIVLMTNYQRLYPGNNRFNYNVMIDEASKSPLHTAFIGLANQLAKDELDGSISIVGDPMQAISLGPYQGSARRMLIMSYLLAPMLNHSSRDLNDRELLAEAKRSAIRGSSFEFLEVTLRMPSPSEEAISKGFYDNDLRAYRSASQILHSNYEANKLRELATEKEQMRKITEKVEELISTGRCILYERVNEKKSYDSNYYRKYGLTYDPTRAELGIETAIALAAGTGKHTTVITTYVDQQIQMDLLMRRKYGYILEKYGIRDQISFSTTQSFLGAEDDNIVAVLGKEYSISTYTQNYSTSTYNEGDPSTIYFNEPEVLNVQLSRHKMLLAIIGNLSILASQAAEGHHHHHH | not soluble
